Results taken from paper doi:10.1101/2025.09.10.672744, “UDP-glucose Activation of a G-protein/Sucrose Synthase Signaling Supercomplex” (bioRxiv, 2025).

Experiments:
His-SUS1 = target: T1, His-SUS1 (Arabidopsis, UniProt P49040 1-808); assay: MST; sfGFP-RGS1(ΔC-tail) as the fluorescent target, His-SUS1 or His-SUS4 as ligands; NanoTemper Monolith NT.115; conditions: both partners purified
T1 construct: Gateway pDEST17 adds linker residues between the His tag and the protein; also called SUCROSE SYNTHASE 1; source: E. coli ArcticExpress RP, purified (Ni-NTA, Superdex 200 SEC); not shown: 6xHis, N-terminal, kept

His-SUS4 = target: T2, His-SUS4 (Arabidopsis, UniProt Q9LXL5 1-808); assay: as above; conditions: both partners purified
T2 construct: Gateway pDEST17 adds linker residues between the His tag and the protein; also called SUCROSE SYNTHASE 4; source: E. coli ArcticExpress RP, purified (Ni-NTA, Superdex 200 SEC); not shown: 6xHis, N-terminal, kept
T2 sequence (Q9LXL5 whole entry): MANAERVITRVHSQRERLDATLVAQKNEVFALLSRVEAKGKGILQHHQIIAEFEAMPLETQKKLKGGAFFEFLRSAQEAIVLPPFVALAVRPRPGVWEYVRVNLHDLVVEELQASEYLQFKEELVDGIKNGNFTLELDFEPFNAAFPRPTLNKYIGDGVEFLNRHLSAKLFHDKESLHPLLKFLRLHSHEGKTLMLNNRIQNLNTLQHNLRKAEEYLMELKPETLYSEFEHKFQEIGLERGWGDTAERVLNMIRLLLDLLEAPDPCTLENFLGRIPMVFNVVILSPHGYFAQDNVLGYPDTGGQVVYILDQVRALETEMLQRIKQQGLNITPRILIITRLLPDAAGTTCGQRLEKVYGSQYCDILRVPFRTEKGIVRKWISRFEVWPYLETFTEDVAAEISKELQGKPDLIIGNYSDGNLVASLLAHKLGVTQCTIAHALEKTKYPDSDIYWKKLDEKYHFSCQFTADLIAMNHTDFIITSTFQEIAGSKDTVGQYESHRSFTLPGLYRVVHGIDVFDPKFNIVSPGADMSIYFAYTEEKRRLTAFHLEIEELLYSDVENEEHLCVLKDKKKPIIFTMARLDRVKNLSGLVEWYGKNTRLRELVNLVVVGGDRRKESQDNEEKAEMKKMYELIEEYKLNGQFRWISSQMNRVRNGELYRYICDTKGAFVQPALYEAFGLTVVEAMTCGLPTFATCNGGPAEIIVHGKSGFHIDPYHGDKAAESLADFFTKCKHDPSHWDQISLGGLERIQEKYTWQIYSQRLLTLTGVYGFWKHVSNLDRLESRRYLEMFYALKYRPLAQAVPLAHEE

T1 sequence (P49040 whole entry): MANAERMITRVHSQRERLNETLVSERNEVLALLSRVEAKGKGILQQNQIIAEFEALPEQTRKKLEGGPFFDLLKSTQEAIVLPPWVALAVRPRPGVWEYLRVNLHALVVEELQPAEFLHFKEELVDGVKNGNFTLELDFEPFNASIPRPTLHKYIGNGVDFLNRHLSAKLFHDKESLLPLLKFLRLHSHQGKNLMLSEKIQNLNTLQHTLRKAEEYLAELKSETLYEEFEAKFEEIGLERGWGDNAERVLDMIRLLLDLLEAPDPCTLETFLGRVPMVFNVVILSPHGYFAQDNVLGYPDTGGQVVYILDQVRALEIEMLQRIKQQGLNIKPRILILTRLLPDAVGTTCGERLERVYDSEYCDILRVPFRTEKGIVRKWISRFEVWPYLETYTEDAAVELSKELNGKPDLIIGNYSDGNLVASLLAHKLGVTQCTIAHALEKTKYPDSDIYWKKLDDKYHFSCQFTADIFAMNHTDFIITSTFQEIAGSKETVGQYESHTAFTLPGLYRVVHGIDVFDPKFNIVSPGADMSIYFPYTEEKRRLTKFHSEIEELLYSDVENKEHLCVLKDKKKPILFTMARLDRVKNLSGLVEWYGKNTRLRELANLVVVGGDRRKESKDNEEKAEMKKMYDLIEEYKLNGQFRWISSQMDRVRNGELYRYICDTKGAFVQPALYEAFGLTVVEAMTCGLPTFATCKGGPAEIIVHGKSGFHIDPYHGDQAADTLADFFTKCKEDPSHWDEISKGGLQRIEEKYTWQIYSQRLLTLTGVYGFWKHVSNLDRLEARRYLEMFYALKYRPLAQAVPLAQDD

Kd (His-SUS1): 161 ± 9 nM | Kd (His-SUS4): 106 ± 3 nM
B1: HA–Flag–10xHis–sfGFP–TEV–Optimized–RGS1(ΔC-tail) (domain or fragment)
chain: MASGCALHGGCPSDYVAVAISVICFFVLLSRSVLPCLIHKAPRTNSSSFWIPVIQVISSFNLLFSIMMSVNLLRFRTKHWWRYCYLWAVWIEGPLGFGLLMSCRITQAFQLYFIFVKKRLPPVKSYIFLPLVLLPWIFGAAIIHATKPLNDKCHMGLQWTFPVAGLHALYVLALIAFTRAVRHVEFRFDELRDLWKGILVSATSIVIWVTAFVLNEIHEEISWLQVASRFVLLVTGGILVVVFFSISSNQPLLSQISLKKRQNFEFQRMGQALGIPDSGLLFRKEEFRPVDPNEPLDKLLLNKRFRHSFMEFADSCYAGETLHFFEEVYEHGKIPEDDSIRRIYMARHIMEKFIVAGAEMELNLSHKTRQEILTTQDLTHTDLFKNALNEVMQLIKMNLVRDYWSSIYFIKFKEEESCHEAMHKEGY
